# T1: I-CreI heterodimer HBB5.3_A2 / HBB5.4_B1 (Chlamydomonas reinhardtii, UniProt P05725;P05725 SEQ:1-167,SEQ:1-167)
# T1 chain 1: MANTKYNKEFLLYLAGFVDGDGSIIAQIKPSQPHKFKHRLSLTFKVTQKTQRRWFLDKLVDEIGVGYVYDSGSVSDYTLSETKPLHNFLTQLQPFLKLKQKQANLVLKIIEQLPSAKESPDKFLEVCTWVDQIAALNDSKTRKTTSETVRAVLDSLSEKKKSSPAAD
# T1 chain 2: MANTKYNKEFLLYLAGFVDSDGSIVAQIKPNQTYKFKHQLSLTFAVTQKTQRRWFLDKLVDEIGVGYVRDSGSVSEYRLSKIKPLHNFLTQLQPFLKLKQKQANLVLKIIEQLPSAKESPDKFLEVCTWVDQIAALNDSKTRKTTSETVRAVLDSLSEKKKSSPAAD
# T2: I-CreI heterodimer HBB5.3_A3 / HBB5.4_A5 (Chlamydomonas reinhardtii, UniProt P05725;P05725 SEQ:1-167,SEQ:1-167)
# T2 chain 1: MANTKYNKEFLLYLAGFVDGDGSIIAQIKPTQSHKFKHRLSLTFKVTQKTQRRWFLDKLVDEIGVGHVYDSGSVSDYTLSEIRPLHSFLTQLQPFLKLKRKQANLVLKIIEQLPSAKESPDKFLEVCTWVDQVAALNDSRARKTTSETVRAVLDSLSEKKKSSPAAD
# T2 chain 2: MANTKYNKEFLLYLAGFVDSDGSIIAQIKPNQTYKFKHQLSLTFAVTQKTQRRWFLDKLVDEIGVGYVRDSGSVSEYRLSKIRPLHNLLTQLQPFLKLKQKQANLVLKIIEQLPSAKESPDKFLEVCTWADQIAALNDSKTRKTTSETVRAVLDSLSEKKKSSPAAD
# T3: I-CreI heterodimer HBB5.3_E3 / HBB5.4_B1 (Chlamydomonas reinhardtii, UniProt P05725;P05725 SEQ:1-167,SEQ:1-167)
# T3 chain 1: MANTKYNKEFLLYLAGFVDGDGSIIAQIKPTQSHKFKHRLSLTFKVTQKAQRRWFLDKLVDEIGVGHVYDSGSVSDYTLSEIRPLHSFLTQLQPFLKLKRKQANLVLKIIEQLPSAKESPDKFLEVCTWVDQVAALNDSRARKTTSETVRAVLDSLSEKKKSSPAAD
# T3 chain 2: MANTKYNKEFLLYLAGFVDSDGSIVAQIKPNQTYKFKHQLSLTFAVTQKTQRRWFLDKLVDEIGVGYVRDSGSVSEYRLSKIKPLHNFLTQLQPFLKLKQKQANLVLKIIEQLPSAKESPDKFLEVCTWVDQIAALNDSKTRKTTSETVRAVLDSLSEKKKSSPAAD
# T4: I-CreI heterodimer HBB5.3_B2 / HBB5.4_A6 (Chlamydomonas reinhardtii, UniProt P05725;P05725 SEQ:1-167,SEQ:1-167)
# T4 chain 1: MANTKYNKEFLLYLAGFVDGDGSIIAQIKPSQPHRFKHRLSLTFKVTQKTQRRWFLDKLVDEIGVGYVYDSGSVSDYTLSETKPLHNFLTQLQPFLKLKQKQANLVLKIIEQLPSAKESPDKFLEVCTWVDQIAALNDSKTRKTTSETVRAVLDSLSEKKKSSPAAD
# T4 chain 2: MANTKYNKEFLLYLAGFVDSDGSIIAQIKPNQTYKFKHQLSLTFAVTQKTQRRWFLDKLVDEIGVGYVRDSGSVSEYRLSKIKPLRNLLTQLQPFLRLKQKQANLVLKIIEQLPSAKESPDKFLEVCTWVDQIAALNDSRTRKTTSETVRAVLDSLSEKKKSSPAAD
# T5: I-CreI heterodimer HBB5.3_E3 / HBB5.4_A6 (Chlamydomonas reinhardtii, UniProt P05725;P05725 SEQ:1-167,SEQ:1-167)
# T5 chain 1: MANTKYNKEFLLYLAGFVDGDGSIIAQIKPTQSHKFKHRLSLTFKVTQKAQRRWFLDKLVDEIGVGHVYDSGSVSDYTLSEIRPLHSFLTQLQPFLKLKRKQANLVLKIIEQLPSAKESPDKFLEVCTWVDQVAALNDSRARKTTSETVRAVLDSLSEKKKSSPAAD
# T5 chain 2: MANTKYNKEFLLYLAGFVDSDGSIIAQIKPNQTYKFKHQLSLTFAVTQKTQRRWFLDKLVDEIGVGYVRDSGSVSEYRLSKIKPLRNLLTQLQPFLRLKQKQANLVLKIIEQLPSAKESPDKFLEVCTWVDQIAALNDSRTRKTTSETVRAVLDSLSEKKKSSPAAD
# T6: I-CreI heterodimer HBB5.3_A3 / HBB5.4_B1 (Chlamydomonas reinhardtii, UniProt P05725;P05725 SEQ:1-167,SEQ:1-167)
# T6 chain 1: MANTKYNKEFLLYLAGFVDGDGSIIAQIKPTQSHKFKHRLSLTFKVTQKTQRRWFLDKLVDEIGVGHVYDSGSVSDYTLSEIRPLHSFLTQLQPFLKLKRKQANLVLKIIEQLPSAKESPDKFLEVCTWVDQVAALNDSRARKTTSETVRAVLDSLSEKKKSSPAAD
# T6 chain 2: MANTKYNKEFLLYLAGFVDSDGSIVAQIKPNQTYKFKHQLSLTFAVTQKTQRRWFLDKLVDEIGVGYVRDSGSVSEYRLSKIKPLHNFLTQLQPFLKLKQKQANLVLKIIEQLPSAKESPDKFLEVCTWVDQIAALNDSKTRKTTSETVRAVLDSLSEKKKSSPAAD
# T7: I-CreI heterodimer HBB5.3_E3 / HBB5.4_A5 (Chlamydomonas reinhardtii, UniProt P05725;P05725 SEQ:1-167,SEQ:1-167)
# T7 chain 1: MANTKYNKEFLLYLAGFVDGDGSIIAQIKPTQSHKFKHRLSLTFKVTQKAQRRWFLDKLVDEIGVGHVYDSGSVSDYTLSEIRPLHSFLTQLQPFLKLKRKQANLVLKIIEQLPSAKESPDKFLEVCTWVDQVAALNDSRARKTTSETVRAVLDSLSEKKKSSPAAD
# T7 chain 2: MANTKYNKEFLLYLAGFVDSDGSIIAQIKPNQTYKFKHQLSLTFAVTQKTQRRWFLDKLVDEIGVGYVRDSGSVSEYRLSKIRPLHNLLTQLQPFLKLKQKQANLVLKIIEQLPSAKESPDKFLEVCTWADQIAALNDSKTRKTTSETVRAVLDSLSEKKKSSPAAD
# T8: I-CreI heterodimer HBB5.3_A2 / HBB5.4_A5 (Chlamydomonas reinhardtii, UniProt P05725;P05725 SEQ:1-167,SEQ:1-167)
# T8 chain 1: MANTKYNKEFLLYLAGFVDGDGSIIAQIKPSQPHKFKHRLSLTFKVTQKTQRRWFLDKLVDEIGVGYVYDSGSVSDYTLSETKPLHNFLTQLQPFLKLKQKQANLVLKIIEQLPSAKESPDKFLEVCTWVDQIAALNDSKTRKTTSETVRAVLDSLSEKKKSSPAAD
# T8 chain 2: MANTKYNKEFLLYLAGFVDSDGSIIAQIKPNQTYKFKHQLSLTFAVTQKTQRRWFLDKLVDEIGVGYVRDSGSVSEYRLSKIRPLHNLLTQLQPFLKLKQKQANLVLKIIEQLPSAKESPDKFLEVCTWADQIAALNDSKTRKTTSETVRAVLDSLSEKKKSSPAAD
# T9: I-CreI heterodimer HBB5.3_B2 / HBB5.4_A5 (Chlamydomonas reinhardtii, UniProt P05725;P05725 SEQ:1-167,SEQ:1-167)
# T9 chain 1: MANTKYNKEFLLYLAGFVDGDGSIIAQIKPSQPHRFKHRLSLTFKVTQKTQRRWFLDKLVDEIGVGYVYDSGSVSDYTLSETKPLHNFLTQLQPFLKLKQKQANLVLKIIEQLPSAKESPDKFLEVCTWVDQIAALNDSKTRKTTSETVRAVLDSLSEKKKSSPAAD
# T9 chain 2: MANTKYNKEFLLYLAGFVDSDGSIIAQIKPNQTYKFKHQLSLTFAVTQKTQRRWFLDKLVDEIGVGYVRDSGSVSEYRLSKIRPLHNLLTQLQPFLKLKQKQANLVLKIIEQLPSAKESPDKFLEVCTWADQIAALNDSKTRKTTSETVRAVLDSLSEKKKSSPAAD
# T10: I-CreI heterodimer HBB5.3_B2 / HBB5.4_B1 (Chlamydomonas reinhardtii, UniProt P05725;P05725 SEQ:1-167,SEQ:1-167)
# T10 chain 1: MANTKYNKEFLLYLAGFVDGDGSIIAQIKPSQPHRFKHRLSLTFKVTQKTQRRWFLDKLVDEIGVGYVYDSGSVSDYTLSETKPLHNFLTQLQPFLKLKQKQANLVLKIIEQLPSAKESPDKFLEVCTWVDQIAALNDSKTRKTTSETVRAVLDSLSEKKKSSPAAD
# T10 chain 2: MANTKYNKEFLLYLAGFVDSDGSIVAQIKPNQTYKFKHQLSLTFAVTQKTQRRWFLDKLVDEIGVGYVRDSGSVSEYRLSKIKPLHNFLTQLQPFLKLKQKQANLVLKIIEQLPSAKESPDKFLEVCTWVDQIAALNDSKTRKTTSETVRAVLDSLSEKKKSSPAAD
# B1: HBB5 (dsDNA)
# DNA 1: CAAGACAGGTTTAAGGAGACCA
# DNA 2: TGGTCTCCTTAAACCTGTCTTG
# How the values were obtained:
# Assay in all cases: cell_activity; CHO extrachromosomal LacZ assay
# [1] = target: T1, I-CreI heterodimer HBB5.3_A2 / HBB5.4_B1
# Protocol: (§1) Several I-CreI refined mutants able to efficiently cleave the HBB 5 target in yeast when forming heterodimers were identified in example 7. In order to validate and characterize the heterodimer displaying the maximal efficacy to cleave the HBB 5 sequence in CHO cells, the efficiency of combinations of mutants able to cut the HBB 5 target were tested using an extrachromosomal assay in mammalian cells.
# (§2) CHO cells were transfected with Polyfect® transfection reagent according to the supplier's protocol (QIAGEN). 72 hours after transfection, culture medium was removed and 150 μl of lysis/revelation buffer for β-galactosidase liquid assay was added (typically 1 liter of buffer contained: 100 ml of lysis buffer (Tris-HCl 10 mM pH7.5, NaCl 150 mM, Triton X100 0.1%, BSA 0.1 mg/ml, protease inhibitors), 10 ml of Mg 100×buffer (MgCl₂ 100 mM, β-mercaptoethanol 35%), 110 ml ONPG 8 mg/ml and 780 ml of sodium phosphate 0.1M pH7.5). After incubation at 37° C., OD was measured at 420 nm. The entire process was performed on an automated Velocity11 BioCel platform. Per assay, 150 ng of target vector was cotransfected with 12.5 ng of each HBB5 mutant expression vector (12.5 ng of vector encoding the mutant cleaving the palindromic HBB5.3 target and 12.5 ng of vector encoding the mutant cleaving palindromic HBB5.4 target).
# [2] = target: T2, I-CreI heterodimer HBB5.3_A3 / HBB5.4_A5
# Protocol: as §1, §2
# [3] = target: T3, I-CreI heterodimer HBB5.3_E3 / HBB5.4_B1
# Protocol: as §1, §2
# [4] = target: T4, I-CreI heterodimer HBB5.3_B2 / HBB5.4_A6
# Protocol: as §1, §2
# [5] = target: T5, I-CreI heterodimer HBB5.3_E3 / HBB5.4_A6
# Protocol: as §1, §2
# [6] = target: T6, I-CreI heterodimer HBB5.3_A3 / HBB5.4_B1
# Protocol: as §1, §2
# [7] = target: T7, I-CreI heterodimer HBB5.3_E3 / HBB5.4_A5
# Protocol: as §1, §2
# [8] = target: T8, I-CreI heterodimer HBB5.3_A2 / HBB5.4_A5
# Protocol: as §1, §2
# [9] = target: T9, I-CreI heterodimer HBB5.3_B2 / HBB5.4_A5
# Protocol: as §1, §2
# [10] = target: T10, I-CreI heterodimer HBB5.3_B2 / HBB5.4_B1
# Protocol: as §1, §2
binder,measurement,setting,value
B1,activity,[1],0.42 absorbance units
same,activity,[2],0.86 absorbance units
same,activity,[3],0.37 absorbance units
same,activity,[4],0.54 absorbance units
same,activity,[5],0.71 absorbance units
same,activity,[6],0.2 absorbance units
same,activity,[7],0.46 absorbance units
same,activity,[8],0.78 absorbance units
same,activity,[9],0.5 absorbance units
same,activity,[10],0.33 absorbance units
